# Results as given in US20100048482.
# Biological target: heat shock protein 90 (HSP90), endogenous, rat heart, P82995
protein,measurement,value
"epsilon protein kinase C (εPKC), endogenous, rat heart (protein) MVVFNGLLKIKICEAVSLKPTAWSLRHAVGPRPQTFLLDPYIALNVDDSRIGQTATKQKTNSPAWHDEFVTDVCNGRKIELAVFHDAPIGYDDFVANCTIQFEELLQNGSRHFEDWIDLEPEGKVYVIIDLSGSSGEAPKDNEERVFRERMRPRKRQGAVRRRVHQVNGHKFMATYLRQPTYCSHCRDFIWGVIGKQGYQCQVCTCVVHKRCHELIITKCAGLKKQETPDEVGSQRFSVNMPHKFGIHNYKVPTFCDHCGSLLWGLLRQGLQCKVCKMNVHRRCETNVAPNCGVDARGIAKVLADLGVTPDKITNSGQRRKKLAAGAESPQPASGNSPSEDDRSKSAPTSPCDQELKELENNIRKALSFDNRGEEHRASSSTDGQLASPGENGEVRQGQAKRLGLDEFNFIKVLGKGSFGKVMLAELKGKDEVYAVKVLKKDVILQDDDVDCTMTEKRILALARKHPYLTQLYCCFQTKDRLFFVMEYVNGGDLMFQIQRSRKFDEPRSGFYAAEVTSALMFLHQHGVIYRDLKLDNILLDAEGHSKLADFGMCKEGILNGVTTTTFCGTPDYIAPEILQELEYGPSVDWWALGVLMYEMMAGQPPFEADNEDDLFESILHDDVLYPVWLSKEAVSILKAFMTKNPHKRLGCVAAQNGEDAIKQHPFFKEIDWVLLEQKKMKPPFKPRIKTKRDVNNFDQDFTREEPILTLVDEAIVKQINQEEFKGFSYFGEDLMP","CPK release into the effluent during reperfusion, hearts perfused with ψεHSP90 peptide (1 µM)",perfusion with ψεHSP90 peptide decreased CPK release by 47%
